Results published in publication doi:10.1101/2025.01.10.632409.

Biological target: TatC from Pisum sativum (thylakoidal) (Pisum sativum (endogenous in pea thylakoids))
Assay: native gel or EMSA

stoichiometry N: 3
Substance: TatC from Pisum sativum (thylakoidal) (natural protein)
